Results: publication PMC3479211
Each block holds one molecule with its values, some of them ahead of it.

How the values were obtained:
[1] = molecular target: wild-type His-p32 (mouse) (UniProt O35658); test: SEC
[2] = molecular target: mutant His-p32 (K89A/K93A) (mouse) (UniProt O35658); test: SEC
p32 (gC1qR) wild-type [3] = molecular target: T1, p32 (gC1qR) wild-type (Mus musculus, UniProt Q8R5L1 72-279); test: EMSA
T1 sequence: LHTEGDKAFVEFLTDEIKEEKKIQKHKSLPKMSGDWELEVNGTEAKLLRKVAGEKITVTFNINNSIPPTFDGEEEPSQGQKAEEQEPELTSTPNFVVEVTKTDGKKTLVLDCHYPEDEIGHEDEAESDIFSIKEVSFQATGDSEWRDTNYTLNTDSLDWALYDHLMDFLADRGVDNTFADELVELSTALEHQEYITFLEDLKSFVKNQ

p32 (gC1qR) wild-type [4] = molecular target: T1, p32 (gC1qR) wild-type; test: EMSA; remark: listed apart in the source
p32 (gC1qR) wild-type [5] = molecular target: T1, p32 (gC1qR) wild-type; test: competition
p32 (gC1qR) wild-type [6] = molecular target: T1, p32 (gC1qR) wild-type; test: competition; remark: listed apart in the source

stoichiometry N [1]: 3
Molecule: wild-type His-p32 (from UniProt O35658 71-278) (natural protein)

stoichiometry N [2]: 3
Molecule: mutant His-p32 (K89A/K93A) (from UniProt O35658 71-278) (natural protein)

B1: 22-mer poly(A) RNA (ssRNA)
RNA: AAAAAAAAAAAAAAAAAAAAAA
Kd (p32 (gC1qR) wild-type [3]): ~6 µM

B2: 14-mer RNA (random) (ssRNA)
RNA: GUUUACGGUGCUA
binding result (p32 (gC1qR) wild-type [4]): binds

B3: 40-mer RNA (random) (ssRNA)
RNA: GGGAGAAAAACAAAACAAAACAAAACUAGCACCGUAAAGC
binding result (p32 (gC1qR) wild-type [5]): binds

B4: 22-mer poly(A) DNA (ssDNA)
DNA: AAAAAAAAAAAAAAAAAAAAAA
binding result (p32 (gC1qR) wild-type [6]): no binding
